Reference: article PMC5604497

Target: leucine zipper domain of the transcription factor GCN4 from Saccharomyces cerevisiae (fusions with T18 and T25) (Saccharomyces cerevisiae)
Test: two-hybrid; bacterial two-hybrid (BACTH), T18 and T25 fusions co-overexpressed in adenylate-cyclase-deficient E. coli BTH-101, LB pH 7, aerobic, OD600 ~0.6; ß-galactosidase activity (ONPG) in Miller units, three biological replicates; background with empty vectors about 400 MU

Substance: leucine zipper domain of the transcription factor GCN4 from Saccharomyces cerevisiae (fusions with T18 and T25) (domain or fragment)
- ß-galactosidase activity: 1200 MU
